Reference: patent US20170112894A1 (CANBAS, published 2017)
Square brackets hold non-standard residues; d marks the D form. Ends that are not written are not given here. dPhe(4-NO2) = N[C@H](Cc1ccc([N+](=O)[O-])cc1)C(=O)O; dPhe(F5) = N[C@H](Cc1c(F)c(F)c(F)c(F)c1F)C(=O)O; dBpa = N[C@H](Cc1ccc(C(=O)c2ccccc2)cc1)C(=O)O; dCha = N[C@H](CC1CCCCC1)C(=O)O

T1: baculovirus derived recombinant human full length Chk1 with histidine tag (human, UniProt O14757 1-476)
T1 sequence: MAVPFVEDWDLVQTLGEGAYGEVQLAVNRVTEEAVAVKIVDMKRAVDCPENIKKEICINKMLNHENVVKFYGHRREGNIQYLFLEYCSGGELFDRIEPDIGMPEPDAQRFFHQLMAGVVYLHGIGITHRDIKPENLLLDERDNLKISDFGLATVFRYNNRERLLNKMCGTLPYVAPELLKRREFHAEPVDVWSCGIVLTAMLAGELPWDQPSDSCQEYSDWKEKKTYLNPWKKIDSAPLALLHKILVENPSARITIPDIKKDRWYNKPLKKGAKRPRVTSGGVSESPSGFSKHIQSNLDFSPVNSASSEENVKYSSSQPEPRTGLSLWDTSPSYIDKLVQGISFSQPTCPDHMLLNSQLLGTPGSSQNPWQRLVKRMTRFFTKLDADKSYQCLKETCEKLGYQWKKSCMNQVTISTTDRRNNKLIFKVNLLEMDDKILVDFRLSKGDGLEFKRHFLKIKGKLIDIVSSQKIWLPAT


Key:
Assay in all cases: cell-based or functional assay
purified CHK2 kinase = biological target: purified CHK2 kinase
PKA = biological target: PKA
[1] = biological target: E. Coli derived recombinant human full length Chk2 fused with GST (human, UniProt O96017 1-543)
[2] = biological target: T1, baculovirus derived recombinant human …

Chain of E. Coli derived recombinant human full length Chk2 fused with GST (O96017 whole entry, the tested form may be a part): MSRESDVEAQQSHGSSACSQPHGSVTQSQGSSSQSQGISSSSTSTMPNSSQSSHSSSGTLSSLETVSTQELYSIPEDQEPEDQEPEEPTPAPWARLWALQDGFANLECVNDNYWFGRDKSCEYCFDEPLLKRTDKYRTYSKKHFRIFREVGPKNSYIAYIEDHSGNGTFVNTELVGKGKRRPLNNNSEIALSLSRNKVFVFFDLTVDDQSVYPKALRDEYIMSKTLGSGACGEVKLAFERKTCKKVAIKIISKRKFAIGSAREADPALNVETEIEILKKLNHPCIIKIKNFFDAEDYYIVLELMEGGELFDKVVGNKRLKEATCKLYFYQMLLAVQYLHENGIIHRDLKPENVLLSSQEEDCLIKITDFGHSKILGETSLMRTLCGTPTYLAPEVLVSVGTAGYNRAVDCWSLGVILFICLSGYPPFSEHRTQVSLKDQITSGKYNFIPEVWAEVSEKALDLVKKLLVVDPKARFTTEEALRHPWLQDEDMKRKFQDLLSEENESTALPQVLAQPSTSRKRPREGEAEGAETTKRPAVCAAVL

Row | Binder | IC50, kinase inhibition (PepTag Non-Radioactive Protein Kinase Assay) (purified CHK2 kinase) [µM] | IC50, kinase inhibition (PepTag Non-Radioactive Protein Kinase Assay) (PKA) [µM] | Kinase inhibition (phosphorylation of serine 216 on GST-Cdc25C 167-267, enzyme linked immune assay) [1] | Kinase inhibition (phosphorylation of serine 216 on GST-Cdc25C 167-267, enzyme linked immune assay) [2]
1 | [dY][dY][dS]G[dS][dR][dPhe(F5)][dCha][dR][dR][dR][dQ][dR][dR][dK][dK][dR]G[dY] [CBP450] | 10 | > 400 | – | –
2 | [dBpa][dD][dS][dW][dS][dPhe(F5)][dCha][dR][dR][dR][dQ][dR][dR] [CBP505] | – | – | > 100 | 63.4
3 | [dBpa][dS][dW][dS][dPhe(4-NO2)][dCha][dR][dR][dR][dQ][dR][dR] [CBP603] | – | – | 18.1 | 15.5
4 | YGRKKRRQRRRXFXYY ((l-Tyr)(l-Gly)(l-Arg)(l-Lys)(l-Lys)(l-Arg)(l-Arg)(l-Gln)(l-Arg)(l-Arg)(l-Arg)(l-Cha)(l-Phe-2,3,4,5,6-F)(l-aminoundecanoic acid)(l-Tyr)(l-Tyr): Cha = cyclohexyl-alanine; Phe-2,3,4,5,6-F = pentafluoro-phenylalanine; aminoundecanoic acid spacer) [CBP440] | 8 | 180 | – | –
5 | [dY][dBpa][dS][dW][dS][dPhe(F5)][dCha][dR][dR][dR][dQ][dR][dR] [CBP500] | – | – | 8 | 5.6
6 | [dBpa][dS][dW][dS][dPhe(F5)][dCha][dR][dR][dR][dQ][dR][dR] [CBP501] | – | – | 18.6 | 7.9
